This is an account of results in article PMC4716839 (eLife, 2015).

The chains are these.
B1: GST-tagged mouse Dna2 α1OB (α1 helix and OB domain, residues 1 to 122) (domain or fragment, UniProt Q6ZQJ5 1-122, looked up)
chain: MEPLDELDLLLLEEDGGAEAVPRVELLRKKADALFPETVLSRGVDNRYLVLAVETSQNERGAEEKRLHVTASQDREHEVLCILRNGWSSVPVEPGDIVHLEGDCTSEPWIIDDDFGYFILYP
notes: Dna2 nuclease-helicase, mouse, residues 1-122 (α1 helix and OB domain); full-length mouse Dna2 has residues 1 to 1062; Cloned into a pGEX-4T vector; also called GST-α1OB
B5: mouse Rpa heterotrimer (Rpa70, Rpa32, Rpa14) (complex)
chain 1: MVGHLSEGAIEVMIQQENTSIKPILQVINIRPISTGNRSPRYRLLMSDGLNTLSSFMLATQLNTLVEGGQLASNCVCQVHKFIVNTLKDGRKVVVLMDLEVMKSAEDVGLKIGNPVPYNEGYGQQQQQQQQQQQQAVPSPASAATPPASKPQPQNGSLGMGSTAAKAYGASKPFGKPAGTGLLQPSGGTQSKVVPIASLTPYQSKWTICARVTNKSQIRTWSNSRGEGKLFSLELVDESGEIRATAFNEQVDKFFPLIEVNKVYYFSKGALKIANKQFSAVKNDYEMTFNNETSVLPCEDGHHLPTVQFDFTGIGDLESKAKDALVDIIGICKSYEDSIKITVKSNNREVAKRNIYLMDMSGKVVTTTLWGEDADKFDGSRQPVMAIKGARVSDFGGRSLSVLSSSTVIVNPDIPEAYKLRGWFDSEGQALDGVSISDHRSGGAGGGNTNWKTLHEAKSENLGQGDKADYFSTVAAVVFLRKENCMYQACPTQDCNKKVIDQQNGLYRCEKCDREFPNFKYRMILSANIADFQENQWVTCFQESAEAILGQNTMYLGELKEKNEQAFEEVFQNANFRSFTFRIRVKLETYNDESRIKATVMDVKPVDFRDYGRRLIANIRKNM
chain 2: MWNSGFESFSSSTYGGAGGYTQSPGGFGSPTPSQAEKKSRVRAQHIVPCTISQLLSATLTDEVFRIGDVEISQVTIVGIIRHAEKAPTNIVYKIDDMTAPPMDVRQWVDTDDASGENAVVPPETYVKVAGHLRSFQNKKSLVAFKIIPLEDMNEFTAHILEVVNSHMMLSKPNSQASAGRPSMSNPGMSEPGNFSGNNFMPANGLTVVQNQVLNLIKACPRPEGLNFQDLRSQLQHMPVPSIKQAVDFLCNEGHIYSTVDDDHFKSTDAE
chain 3: MEDIMQLPKARVNASMLPQYIDRPVCFVGKLEKIHPTGKMFILSDGEGKNGTIELMEPLDEEISGIVEVVGKVTAKATVLCASYTLFKEDTNRFDLELYNEAVKIINELPQFFPVGLPQHE
notes: Rpa70 subunit of Replication Protein A, mouse; Rpa32 subunit of Replication Protein A, mouse; Rpa14 subunit of Replication Protein A, mouse; The GST tag on Rpa32 is called cleavable; also called heterotrimeric Rpa; full-length Rpa; source: Hi-5 insect cells co-infected with two baculoviruses, purified as described (Fan and Pavletich, 2012); copies: + +

What all share (settings): both partners purified
The target in test [1] is B5. Nature of the test: pull-down; GST-tagged mouse Dna2 fragment or GST (30 μM in Figure 4A) with an equal molar amount of Rpa or Rpa fragment; 20 mM Tris-HCl, 80 mM NaCl, 0.3 mM TCEP, 2% glycerol, pH 8.0, 4°C, 30 min, then glutathione beads; eluted with 20 mM glutathione, SDS-PAGE.
The target in test [2] is T1, mouse Rpa70NAB (Rpa70 fragment with the OBN, DBD-A and DBD-B domains, residues 1 to 431) (mouse, UniProt Q8VEE4 1-431).
T1 construct: Rpa70, mouse, residues 1-431 (OBN, DBD-A, DBD-B); not shown: His6-SUMO, N-terminal, cleaved
Described as above.

For test [3], the target named is T2, mouse Rpa70AB (residues 191–431) (mouse, UniProt Q8VEE4 191-431).
T2 construct: Rpa70, mouse, residues 191-431 (DBD-A and DBD-B); also called Rpa70AB polypeptide; not shown: His6-SUMO, N-terminal, cleaved
The description is as above.

Test [4] has as its target T3, mouse Rpa70N (residues 1–122) (mouse, UniProt Q8VEE4 1-122).
T3 construct: Rpa70, mouse, residues 1-122 (OBN domain); also called Rpa70N polypeptide; not shown: His6-SUMO, N-terminal, cleaved
T3 sequence (looked up): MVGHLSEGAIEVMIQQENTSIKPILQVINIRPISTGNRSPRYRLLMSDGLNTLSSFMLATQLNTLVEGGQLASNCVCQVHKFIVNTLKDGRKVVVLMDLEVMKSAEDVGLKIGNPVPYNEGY
The description is as above.

Test [5] addresses T4, human Rpa70NAB (residues 1–422) (human, UniProt P27694 1-422).
T4 construct: Rpa70, human, residues 1-422 (OBN, DBD-A, DBD-B); source: E. coli BL21DE3, purified
The test can be described thus: ITC; MicroCal ITC200, 20°C, 20 mM HEPES, 80 mM NaCl, 0.2 mM TCEP, pH 7.5; human polypeptides.

Test [6] deals with B1. Nature of the test: pull-down; GST pull-down as a1 with (dT)24 or (dT)8 ssDNA added; concentrations shown in the figure; bound Rpa70 quantified relative to the lane without DNA.
Test [7] has as its target T5, human Rpa70N (OBN domain of Rpa70, residues 1–120) (human, UniProt P27694 1-120).
T5 construct: Rpa70, human, residues 1-120 (OBN domain); Used in ITC and in the co-crystals; also called Rpa70 OBN; RPA70 OBN; source: E. coli BL21DE3, purified
Nature of the test: ITC; MicroCal ITC200, 20°C, 20 mM HEPES, 80 mM NaCl, 0.2 mM TCEP, pH 7.5; human polypeptides.

T5 sequence (P27694 1-120): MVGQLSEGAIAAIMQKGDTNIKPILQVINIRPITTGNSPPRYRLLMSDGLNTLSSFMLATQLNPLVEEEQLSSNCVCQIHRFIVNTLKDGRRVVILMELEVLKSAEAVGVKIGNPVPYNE
T4 sequence (P27694 1-422): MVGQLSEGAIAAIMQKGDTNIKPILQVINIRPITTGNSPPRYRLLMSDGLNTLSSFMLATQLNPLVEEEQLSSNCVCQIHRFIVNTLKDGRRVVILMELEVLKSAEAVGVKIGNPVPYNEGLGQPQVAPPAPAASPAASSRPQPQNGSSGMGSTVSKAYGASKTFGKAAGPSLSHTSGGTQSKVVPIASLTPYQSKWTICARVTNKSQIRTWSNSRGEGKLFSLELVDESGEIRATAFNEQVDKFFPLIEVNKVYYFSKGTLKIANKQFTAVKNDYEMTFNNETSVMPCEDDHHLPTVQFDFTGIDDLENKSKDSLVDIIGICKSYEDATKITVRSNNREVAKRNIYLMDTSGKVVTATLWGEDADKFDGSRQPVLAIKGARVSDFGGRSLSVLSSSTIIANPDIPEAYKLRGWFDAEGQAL

Consider B1, for which the binding result in test [1] and in test [2] was “binds” each time.

B2: GST-tagged mouse Dna2 OB (residues 21–122) (domain or fragment, UniProt Q6ZQJ5 21-122, looked up)
chain: VPRVELLRKKADALFPETVLSRGVDNRYLVLAVETSQNERGAEEKRLHVTASQDREHEVLCILRNGWSSVPVEPGDIVHLEGDCTSEPWIIDDDFGYFILYP
notes: Dna2, mouse, residues 21-122 (OB domain); Cloned into a pGEX-4T vector; also called GST-OB
For B2, the binding result in test [3] is “binds”.

B3: GST-tagged mouse Dna2 α1 (residues 1–20) (peptide, UniProt Q6ZQJ5 1-20, looked up)
chain: MEPLDELDLLLLEEDGGAEA
notes: Dna2, mouse, residues 1-20 (α1 helix); Cloned into a pGEX-4T vector; also called GST-α1
As to B3, the binding result in test [4] is “binds”.

B4: human Dna2 α1OB (residues 1–122) (domain or fragment, UniProt P51530 1-122, looked up)
chain: MEQLNELELLMEKSFWEEAELPAELFQKKVVASFPRTVLSTGMDNRYLVLAVNTVQNKEGNCEKRLVITASQSLENKELCILRNDWCSVPVEPGDIIHLEGDCTSDTWIIDKDFGYLILYPD
notes: Dna2, human, residues 1-122 (α1 helix and OB domain); source: E. coli BL21DE3, purified
For the molecule B4, the Kd (commonly the constant that tells how readily two partners part at equilibrium) in test [5] was determined as 12 ± 1 µM.
Consider B5, for which the “fold reduction of bound Rpa by one molar equivalent of (dT)24 ssDNA” value in test [6] is about 4 fold.

B6: human Dna2 α1 (residues 1–20), polypeptide used in ITC (peptide, UniProt P51530 1-20, looked up)
chain: MEQLNELELLMEKSFWEEAE
notes: Dna2, human, residues 1-20 (α1 helix); also called Dna2 α1 helix; source: E. coli BL21DE3, purified
For B6, the Kd in test [7] turned out to be 34 ± 7 µM.
